This data set deals with the molecule itself. Nature of the data set: immunoblotting of SDS-resistant high molecular weight species; purified DNAJC5 protein incubated with buffer or calf liver cytosol with or without ATP at 37 °C for 30 min, then immunoblotting. (In general: Immunoblotting shows a protein as a band on a membrane.)

Data on one protein can be found in article doi:10.1101/2025.02.18.638932, “CHIP protects lysosomes from CLN4 mutant-induced membrane damages” (bioRxiv, 2025).

B1: recombinant human DNAJC5 L116Δ (natural protein, UniProt Q9H3Z4 1-198, looked up)
chain: MADQRQRSLSTSGESLYHVLGLDKNATSDDIKKSYRKLALKYHPDKNPDNPEAADKFKEINNAHAILTDATKRNIYDKYGSLGLYVAEQFGEENVNTYFVLSSWWAKALFVFCGLTCCYCCCCLCCCFNCCCGKCKPKAPEGEETEFYVSPEDLEAQLQSDEREATDTPIVIQPASATETTQLTADSHPSYHTDGFN
notes: DNAJC5, human, CLN4 disease mutant L116Δ (p.L116del, c.346-348del); A TEV cleavage site lies between the GST tag and the protein; also called hDNAJC5 L116Δ; purified L116Δ mutant; source: E. coli BL21(DE3), purified (Glutathione Sepharose, eluted by TEV protease)
Take B1: the binding result is on record as “binds”.
